Data reported in paper PMC2745220 (Cell, 2008).

T1: ParB, purified (C. crescentus, UniProt P0CAV8 1-304)
T1 sequence (looked up): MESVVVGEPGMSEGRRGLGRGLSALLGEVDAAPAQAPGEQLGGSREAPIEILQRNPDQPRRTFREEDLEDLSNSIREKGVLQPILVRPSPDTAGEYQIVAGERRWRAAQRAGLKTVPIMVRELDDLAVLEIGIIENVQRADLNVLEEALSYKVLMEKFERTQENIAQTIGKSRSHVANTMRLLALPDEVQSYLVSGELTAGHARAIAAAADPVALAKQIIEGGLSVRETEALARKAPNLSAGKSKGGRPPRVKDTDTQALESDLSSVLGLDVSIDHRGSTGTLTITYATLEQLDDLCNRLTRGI


Assays:
native gel or EMSA = biological target: the molecule itself; experiment: native gel or EMSA
ParB, purified = biological target: T1, ParB, purified; experiment: SPR
SEC = biological target: the molecule itself; experiment: SEC

Binder	binding result (native gel or EMSA)	Kd (ParB, purified)	binding result (SEC)
PopZ (Polar Organizing Protein Z), purified, 6-His tag cleaved (natural protein, C. crescentus, UniProt Q9A8N4 1-177, looked up) MSDQSQEPTMEEILASIRRIISEDDAPAEPAAEAAPPPPPEPEPEPVSFDDEVLELTDPIAPEPELPPLETVGDIDVYSPPEPESEPAYTPPPAAPVFDRDEVAEQLVGVSAASAAASAFGSLSSALLMPKDGRTLEDVVRELLRPLLKEWLDQNLPRIVETKVEEEVQRISRGRGA	binds	20 nM	
6His-PopZ (His-tagged PopZ) (natural protein, C. crescentus, UniProt Q9A8N4 1-177, looked up) MSDQSQEPTMEEILASIRRIISEDDAPAEPAAEAAPPPPPEPEPEPVSFDDEVLELTDPIAPEPELPPLETVGDIDVYSPPEPESEPAYTPPPAAPVFDRDEVAEQLVGVSAASAAASAFGSLSSALLMPKDGRTLEDVVRELLRPLLKEWLDQNLPRIVETKVEEEVQRISRGRGA			binds
